According to patent US20250302956A1:

Assays:
Experiment in all cases: cell-based or functional assay
[1] = target: LAMWITQC (SEQ ID NO: 2) presented by HLA-A02 on T2 cells (human)
[2] = target: LLMWITQC (SEQ ID NO: 1) presented by HLA-A02 on T2 cells (human)
[3] = target: NY-ESO-1 peptide … (SEQ ID NO: 40) presented by HLA-A02 on T2 cells (human)

average log 2FC in PresentER library coculture screen, CD8-native 1G4-α95: TS cells (log2 fold change) [1]: -4 | average log 2FC in PresentER library coculture screen, CD8-native 1G4-α95: TS cells (log2 fold change) [2]: -5 | average log 2FC in PresentER library coculture screen, CD8-native 1G4-α95: TS cells (log2 fold change) [3]: -6.1
Substance: native 1G4-α95: TS TCR
